This note sets out measurements from article PMC4270767 (PLoS ONE, 2014).

The experiment relates to THP-1 cells. The format is cell-based. The settings on record: 100 µg of purified protein, 30 minutes and 2 hours.

B1: PSPD: phosphoserine phosphatase domain of MtSerB2 alone (residues 165–409) (protein, UniProt O53289 165-409, looked up, fragment)
chain: VDVAVEDYGLAWRTKRLIVFDVDSTLVQGEVIEMLAARAGAQGQVAAITEAAMRGELDFAESLQRRVATLAGLPATVIDDVAEQLELMPGARTTIRTLRRLGFRCGVVSGGFRRIIEPLARELMLDFVASNELEIVDGILTGRVVGPIVDRPGKAKALRDFASQYGVPMEQTVAVGDGANDIDMLGAAGLGIAFNAKPALREVADASLSHPYLDTVLFLLGVTRGEIEAADAGDCGVRRVEIPAD
modifications: phosphoserine phosphatase domain
In the case of B1, the rearrangement of microtubules entry was “significant”.

B2: ACT-domains: ACT domains of MtSerB2 alone (residues 1–165) (protein, UniProt O53289 1-165, looked up, fragment)
chain: MPAKVSVLITVTGMDQPGVTSALFEVLAQHGVELLNVEQVVIRGRLTLGVLVSCPLDVADGTALRDDVAAAIHGVGLDVAIERSDDLPIIRQPSTHTIFVLGRPITAGAFSAVARGVAALGVNIDFIRGISDYPVTGLELRVSVPPGCVGPLQIALTKVAAEEHV
modifications: ACT domains
For the molecule B2, the rearrangement of microtubules result is recorded as “almost no re-arrangement of the microtubules”.

B3: Wild-type: recombinant hexa-his-tagged M. tuberculosis phosphoserine phosphatase SerB2 (Rv3042c) (protein, UniProt O53289 1-409, looked up)
chain: MPAKVSVLITVTGMDQPGVTSALFEVLAQHGVELLNVEQVVIRGRLTLGVLVSCPLDVADGTALRDDVAAAIHGVGLDVAIERSDDLPIIRQPSTHTIFVLGRPITAGAFSAVARGVAALGVNIDFIRGISDYPVTGLELRVSVPPGCVGPLQIALTKVAAEEHVDVAVEDYGLAWRTKRLIVFDVDSTLVQGEVIEMLAARAGAQGQVAAITEAAMRGELDFAESLQRRVATLAGLPATVIDDVAEQLELMPGARTTIRTLRRLGFRCGVVSGGFRRIIEPLARELMLDFVASNELEIVDGILTGRVVGPIVDRPGKAKALRDFASQYGVPMEQTVAVGDGANDIDMLGAAGLGIAFNAKPALREVADASLSHPYLDTVLFLLGVTRGEIEAADAGDCGVRRVEIPAD
modifications: full-length His6 tag
Turning to B3, the rearrangement of microtubules entry is “striking rearrangement of microtubules”.
